In data set [1] the target is His598 (UniProt position 598, TSCGCHEAIMA). Nature of the data set: kinetics. The note with it: 20 mM PBS; Ni-reconstituted protein (Nid site occupied, labile Nip removed with phenanthroline), turning over superoxide.
The target of data set [2] is His598 (UniProt position 598, TYCGCHEAIMA). In words: kinetics. The note with it: 20 mM PBS; Ni-reconstituted protein (Nid site occupied, labile Nip removed with phenanthroline), turning over superoxide.

Regarding “Acetyl-coenzyme A synthase, truncated C-terminal fragment ACS-alpha15, EFG-F598H variant (Moorella thermoacetica; F598H;S594_C595insEFG)”, in the data set with His598 [1], the pKa came to 6.09.

As for “Acetyl-coenzyme A synthase, truncated C-terminal fragment ACS-alpha15, YGP-F598H variant (Moorella thermoacetica; S594Y;Y594_C595insGP;F598H)”, the pKa with His598 [2] is listed as 5.87.

The record behind these values is paper PMC8910529.
